Assay [1] concerns the target T1, cynomolgus monkey CD137 on cells (cynomolgus monkey, UniProt A9YYE7 24-254).
T1 construct: whole, on cells; also called CHO-cynomolgus monkey CD137
The assay is described as follows: flow cytometry, cellular CD137; cynomolgus monkey CD137. As to the method:
(§1) CHO cells over-expressing human or cynomolgus monkey CD137 and CHO parental cells were harvested by centrifugation at 1000 g for 3 minutes. The cells were resuspended in ice cold assay buffer at 2*10\hat{ }6/mL and transferred to 96-well V-bottom plate with 100 μL/well. […] The plate was mixed and incubated in the dark for 2 hours at 4° C. The cells were washed 3 times by centrifugation at 1000 g for 3 min and resuspended in ice cold assay buffer containing goat F(ab′)₂ anti-human IgG-Fc (PE), 100 μL/well. The plate was incubated in the dark for another 1 hour at 4° C. The cells were washed 2 times by centrifugation at 1000 g for 3 min and resuspended in ice cold assay buffer containing 2% PFA. The cells were then subjected to the flow cytometer immediately.
(§2) Mean fluorescence intensity (MFI) was calculated from the total cell population in the FCM experiments. Graphpad 7.0, “[Agonist] vs. response—Variable slope (four parameters)” was used to plot the binding MFI in dose response and to calculate FCM binding EC₅₀ values.
(In general: In flow cytometry, cells or beads pass a laser one at a time.)

The next assay has as its target T2, human CD137 on cells (human, UniProt Q07011 24-255).
T2 construct: whole, on cells; also called CHO-human CD137; CHO cells over-expressing human CD137
The assay can be described thus: flow cytometry on CHO cells over-expressing human CD137; average, n=6. As to the method: as §1, §2

Assay [2] deals with T3, recombinant human CD137 receptor protein (human, UniProt Q07011 24-186).
T3 construct: Coated on ELISA plates; also called recombinant human CD137 protein
The assay can be described thus: ELISA, recombinant human CD137 protein coated, antibody titrated. As to the method: The human or cynomolgus monkey CD137 receptor protein was diluted in DPBS to 1 μg/mL, and then coated onto an ELISA plate (Corning, Catalog number: 9018, high binding) with a volume of 100 μL (0.1 μg) or 50 μL (0.05 μg) per well, and incubated at 4° C. overnight. The plate was decanted and washed once; assay diluent was added 200 μL/well. After a one-hour incubation at room temperature, the plate was washed with PBST one time. […] The plate was incubated one hour at room temperature and then washed three times with PBST. Goat anti-human IgG-H+L HRP conjugated at 1:100,000 dilution was added to the plate at 100 μL/well. The plate was then incubated one hour at room temperature followed by washing with PBST four times. The TMB substrate solution was added at 100 μL/well. The color was allowed to develop for 15 minutes, and was stopped with 100 μL/well 2N H₂SO₄. Absorbance at 450 nm and 620 nm was determined by a Tecan F200 Pro reader.
Graphpad 7.0, “[Agonist] vs. response—Variable slope (four parameters)” was used to plot the binding data and calculate binding EC₅₀ values.

Assay [3] addresses T4, human FcγRIIA-His131 on CHO-K1 cells (human, UniProt P12318 34-317).
T4 construct: whole, on cells; Allotype His131; also called CHO-K1-huFcγRIIA-His131; CHO-huFcγRIIA-H131
T4 sequence (looked up): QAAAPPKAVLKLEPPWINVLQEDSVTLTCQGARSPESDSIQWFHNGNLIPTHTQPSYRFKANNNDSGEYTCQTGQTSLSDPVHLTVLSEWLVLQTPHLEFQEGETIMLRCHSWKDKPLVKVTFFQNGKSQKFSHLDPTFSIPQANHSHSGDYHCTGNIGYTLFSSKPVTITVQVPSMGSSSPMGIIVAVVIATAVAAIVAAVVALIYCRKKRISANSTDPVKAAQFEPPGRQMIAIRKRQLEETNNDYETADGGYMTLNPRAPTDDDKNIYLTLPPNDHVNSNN
The assay is described as follows: flow cytometry on CHO-huFcγRIIA-H131 cells, PE anti-human Fc F(ab')2. The protocol: The plate was mixed and incubated in the dark for 2 hours at 4° C.

Another assay has as its target T5, Ly052.
T5 chain: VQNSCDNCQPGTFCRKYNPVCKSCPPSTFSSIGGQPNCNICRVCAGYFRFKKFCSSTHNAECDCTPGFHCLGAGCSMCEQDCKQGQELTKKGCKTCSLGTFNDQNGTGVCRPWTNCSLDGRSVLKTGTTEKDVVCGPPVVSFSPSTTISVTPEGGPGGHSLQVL
The assay is described as follows: ELISA, CD137 protein coated, clone 3712 titrated; flat curve (see non_binding). As to the method: (§3) For the data shown in FIGS. 16C-D, chimeric CD137 receptor protein samples were diluted in DPBS to 5 μg/mL and then coated onto an ELISA plate (Corning, Catalog number: 9018, high binding) at 50 μL (0.25 μg) per well, and incubated at 4° C. overnight. The plate was decanted and washed once; assay diluent was added at 200 μL/well. After a 1-hour incubation at room temperature, the plate was washed with PBST one time. […] The plate was incubated 1 hour at room temperature and then washed three times with PBST. Goat anti-human IgG-H+L HRP-conjugated at 1:100,000 dilution or goat anti-mouse IgG (H+L) secondary antibody, HRP, 10 at 1:50,000 dilution was added to the plate at 100 μL/well. The plate was incubated 1 hour at room temperature followed by washing with PBST four times. The TMB substrate solution was added 100 μL/well. The color was permitted to develop for 15 minutes and then 100 μL/well 2N H2SO4 was added to terminate the reaction. Absorbance at 450 nm and 620 nm was determined by a Tecan F200 Pro reader.
On the technique in general: In an ELISA, binding on a coated surface is turned into a signal by an enzyme label.

The target in a further assay is T6, Ly110.
T6 chain: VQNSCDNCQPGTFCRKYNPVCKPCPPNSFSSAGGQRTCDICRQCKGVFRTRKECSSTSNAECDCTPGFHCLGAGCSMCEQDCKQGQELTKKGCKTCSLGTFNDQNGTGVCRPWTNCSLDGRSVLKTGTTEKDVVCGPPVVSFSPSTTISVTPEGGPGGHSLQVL
The assay is described as follows: ELISA, CD137 protein coated, clone 3712 titrated; sigmoid with a low plateau of about 0.45 (huCD137 about 1.5). The protocol: as §3

The target in assay [4] is T3, recombinant human CD137 receptor protein. The assay is described as follows: ELISA, clone 3712-IgG1v coated, huCD137 titrated (EC50 is a concentration of the CD137 protein); full sigmoid, plateau about 2.2.
Target sequence in this assay (Q07011 24-186 limits assumed): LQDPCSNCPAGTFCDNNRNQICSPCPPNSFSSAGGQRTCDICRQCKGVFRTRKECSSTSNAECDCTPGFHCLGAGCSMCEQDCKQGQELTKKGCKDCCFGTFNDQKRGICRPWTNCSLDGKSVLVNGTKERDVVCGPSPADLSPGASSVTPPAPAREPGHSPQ

“And” between values parts separate entries of the source, which are not always exact repeats. Identical values can stand only once.

T2 sequence (Q07011 24-255): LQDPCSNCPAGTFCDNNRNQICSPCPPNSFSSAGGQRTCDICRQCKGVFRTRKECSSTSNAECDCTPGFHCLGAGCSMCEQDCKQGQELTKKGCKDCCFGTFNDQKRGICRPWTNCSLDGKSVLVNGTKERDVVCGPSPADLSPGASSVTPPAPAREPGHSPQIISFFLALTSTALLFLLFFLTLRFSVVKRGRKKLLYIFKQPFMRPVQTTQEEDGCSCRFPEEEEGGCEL
T1 sequence (A9YYE7 entry or part of it): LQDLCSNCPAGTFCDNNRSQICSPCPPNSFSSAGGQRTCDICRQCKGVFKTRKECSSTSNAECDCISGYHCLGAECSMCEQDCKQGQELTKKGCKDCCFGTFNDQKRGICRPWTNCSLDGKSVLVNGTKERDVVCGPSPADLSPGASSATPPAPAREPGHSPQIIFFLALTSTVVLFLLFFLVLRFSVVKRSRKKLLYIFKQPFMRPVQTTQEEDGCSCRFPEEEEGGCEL

B1: Clone 3712-IgG1v (IgG1v/kappa) (antibody)
heavy: QVQLVQSGAEVKKPGASVKVSCKASGYTFAGFEMHWVRQAPGQGLEWMGAIDPKTGGTDYNQKFKDRVTMTRDTSISTAYMELSRLRSDDTAVYYCARDLGYFDVWGQGTLVTVSSASTKGPSVFPLAPSSKSTSGGTAALGCLVKDYFPEPVTVSWNSGALTSGVHTFPAVLQSSGLYSLSSVVTVPSSSLGTQTYICNVNHKPSNTKVDKKVEPKSCDKTHTCPPCPAPELLGPSVFLFPPKPKDTLMISRTPEVTCVVVDVEHEDPEVKFNWYVDGVEVHNAKTKPREEQYNSTYRVVSVLTVLHQDWLNGKEYKCKVSNKALPAPIEKTISKAKGQPREPQVYTLPPSREEMTKNQVSLTCLVKGFYPSDIAVEWESNGQPENNYKTTPPVLDSDGSFFLYSKLTVDKSRWQQGNVFSCSVMHEALHNHYTQKSLSLSPGK
light: DIQMTQSPSSLSASVGDRVTITCRASQDIRSNLNWYQQKPGGAVKLLIYYTSRLHSGVPSRFSGSGSGTDYTLTISSLQPEDFATYFCQQSEKLPRTFGGGTKVEIRRTVAAPSVFIFPPSDEQLKSGTASVVCLLNNFYPREAKVQWKVDNALQSGNSQESVTEQDSKDSTYSLSSTLTLSKADYEKHKVYACEVTHQGLSSPVTKSFNRGEC
notes: copies: 2 + 2
As to B1, the concentration for a half-maximal effect (EC50) in assay [1] was ~0.3 nM; in the assay with human CD137 on cells it was 0.35 nM and 0.0497 µg/mL; in the assay with Ly052 it was 0.000749 µg/mL; with Ly110, 0.0578 µg/mL; in assay [4], 0.0669 µg/mL. In addition, the concentration giving a half-maximal response (EC50 (read off the curve)) in assay [2] was ~0.05 µg/mL. In addition, the binding result in assay [3] is given as “no binding (tested: 100 µg/mL)”.

What is called EC50 is the concentration needed to bring the measured effect to its halfway point. Broadly, the EC50 (read off the curve) is the concentration at which the effect is half-maximal.

(Values after US20210246218A1 (LYVGEN BIOPHARMA SUZHOU, published 2021).)
